Experimental data: patent US6093692A, “Method and compositions for lipidization of hydrophilic molecules” (The University of Southern California, priority 1997, dated 2000)

Test system: Caco-2 cells
Format: cell-based, Human
Method: Human colon carcinoma cells (Caco-2) were detached from 25 cm^2 stock culture flasks using a 10 min incubation at 37° C. with 0.5 ml of a trypsin/EDTA solution (0.5% trypsin, 5.3 mM EDTA). The cells were then suspended in 5 ml of Dulbecco's minimum essential medium, supplemented with 15% fetal bovine serum (FBS), L-glutamine (1%), and essential amino acids (1%), and counted using a coulter counter.
Radioiodination of BBI and BBIssPal was carried out using the chloramine-T method [McConahey, P. C. and Dixon, F. J., Meth. Enzymol., 70:221-247 (1980)]. Confluent, 14-day old cell monolayers were washed once with, and then incubated in, serum-free Dulbecco medium at 37° C. for 30 min. Subsequently, the incubation medium was replaced with serum free medium containing ^125 I-BBI (10 μg/ml), either as native-BBI or as BBIssPal or BBIssOleic, and the monolayers were incubated for a further 60 min at 37° C. The monolayers were then washed three times with ice-cold PBS, and then exposed to trypsin (0.5%, EDTA 5.3 mM) for 10 min at 37° C. The detached cells were transferred to tubes, isolated by centrifugation, washed three times using ice-cold PBS, assayed for accumulated radioactivity using a gamma counter, and finally assayed for cell protein using the published method [Lowry, O. H., et al., J. Biol. Chem., 193:265-275 (1951)].
In some experiments the uptake of reduced ^125 I-BBIssPal into cells was determined. ^125 I-BBIssPal was reduced with DTT (50 mM) at 60° C. for 5 min followed by a further 25 min at 37° C. In control experiments, ^125 I-BBIssPal was exposed in medium to the same temperatures without being exposed to DTT.
The uptake of ^125 I-BBIssPal in the presence of BSA (fatty acid free) was determined as follows. ^125 I-BBIssPal was incubated with medium containing 0.1% BSA for 30 min at 37° C. before being added to the cell monolayers. In some uptake experiments, BSA was first mixed with a 3-fold molar excess of palmitic acid, and then incubated with the conjugates prior to the experiments. In the experiments where the uptake of ^125 I-BBIssPal was determined in medium containing FBS, the conjugates was simply added to the medium containing the required amount of FBS.
The cell monolayers were incubated with ^125 I-labeled conjugates at 10 μg/ml for 60 min at 37° C. The results presented are the average of three monolayers ±SEM. The uptake experiments were carried out in Dulbecco medium, in the presence and absence of added FBS.
The cell uptake of ^125 I-BBI, either as the native protein or as BBIssPal was determined before and after reduction with DTT (50 mM) for 5 min at 60° C. and 25 min at 37° C.
The uptake experiments were carried out in Dulbecco medium, in the presence and absence of added fatty acid-free BSA (BSA) or fatty acid-loaded BSA (BSA/FA). The results of studies of the uptake of ^125 I-BBI, either as the native-BBI or in conjugated form to palmitic or oleic acid, in Caco-2 cells in the presence of serum-free medium are presented in FIG. 1. The results are shown as the average ng of BBI internalized ±SEM, n=3. The uptake of ^125 I-BBIssPal into the cells was approximately 100-fold higher than that of ^125 I-BBI. […] The difference between the uptake of ^125 I-BBIssPal and ^125 I-BBIssOleic were significant.

B1: BBIssPal: the palmityl disulfide conjugate of BBI (conjugate, UniProt P01055 40-110, looked up)
Bowman-Birk type proteinase …: DDESSKPCCDQCACTKSNPPQCRCSDMRLNSCHSACKSCICALSYPAQCFCVDITDFCYEPCKPSEDDKEN
modifications: palmityl disulfide; 125I
notes: the palmityl disulfide conjugate of BBI
Internalization, fold over that of BBI: 35 fold | Reduction of uptake after reduction with DTT: approximately 80% | Reduction of uptake by defatted-BSA: 82% | Uptake, fold higher than native-BBI: 10 fold
